Data: patent EP4610267A1, “CYCLIC DINUCLEOTIDES AND CONJUGATES THEREOF WITH ANTIBODIES” (priority 2024, dated 2025)

T1: TROP2 (UniProt P09758 27-323, limits assumed)
T1 sequence (looked up): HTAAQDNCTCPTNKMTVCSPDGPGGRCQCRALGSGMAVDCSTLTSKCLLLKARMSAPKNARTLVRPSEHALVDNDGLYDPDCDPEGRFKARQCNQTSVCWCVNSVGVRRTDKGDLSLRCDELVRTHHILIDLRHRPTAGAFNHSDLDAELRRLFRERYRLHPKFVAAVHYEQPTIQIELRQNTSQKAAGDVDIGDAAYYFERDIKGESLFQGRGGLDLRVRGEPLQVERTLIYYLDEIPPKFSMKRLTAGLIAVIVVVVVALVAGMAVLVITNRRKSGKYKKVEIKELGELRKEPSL

B1: isotype mAb Libivirumab (anti HBsAg mAb) conjugated with Compound 3.4 (antibody, human IgG1, kappa, V domains shown)
VH: QVQLVESGGGVVRPGRSLRLSCAASGFAFSDYSINWVRQAPGKGLEWVAIISYDGRITYYRDSVKGRFTISRDDSKNTLYLQMNSLRTEDTAVYYCARQYYDFWSGSSVGRNYDGMDVWGLGTTVTVSS
VL: DIVMTQSPLSLSVTPGEPASISCRSSQSLLHRSGNNYLDWYLQKPGHSPQLLIYVGSNRASGVPDRFSGSGSGTEYTLKISRVEAEDVGVYYCMQALQTPRTFGQGTKLEIKR
B2: isotype mAb Libivirumab (anti HBsAg mAb) conjugated with Compound 3.3 (antibody, human IgG1, kappa, V domains shown)
VH: QVQLVESGGGVVRPGRSLRLSCAASGFAFSDYSINWVRQAPGKGLEWVAIISYDGRITYYRDSVKGRFTISRDDSKNTLYLQMNSLRTEDTAVYYCARQYYDFWSGSSVGRNYDGMDVWGLGTTVTVSS
VL: DIVMTQSPLSLSVTPGEPASISCRSSQSLLHRSGNNYLDWYLQKPGHSPQLLIYVGSNRASGVPDRFSGSGSGTEYTLKISRVEAEDVGVYYCMQALQTPRTFGQGTKLEIKR
B3: isotype mAb Libivirumab (anti HBsAg mAb) conjugated with Compound 3.13 (antibody, human IgG1, kappa, V domains shown)
VH: QVQLVESGGGVVRPGRSLRLSCAASGFAFSDYSINWVRQAPGKGLEWVAIISYDGRITYYRDSVKGRFTISRDDSKNTLYLQMNSLRTEDTAVYYCARQYYDFWSGSSVGRNYDGMDVWGLGTTVTVSS
VL: DIVMTQSPLSLSVTPGEPASISCRSSQSLLHRSGNNYLDWYLQKPGHSPQLLIYVGSNRASGVPDRFSGSGSGTEYTLKISRVEAEDVGVYYCMQALQTPRTFGQGTKLEIKR
B4: anti-TROP2 mAb5 (Sacituzumab, heavy chain S375C, light chain V110C) conjugated with Compound 3.3 (antibody, human IgG1, V domains shown)
VH: QVQLQQSGSELKKPGASVKVSCKASGYTFTNYGMNWVKQAPGQGLKWMGWINTYTGEPTYTDDFKGRFAFSLDTSVSTAYLQISSLKADDTAVYFCARGGFGSSYWYFDVWGQGSLVTVSS
VL: DIQLTQSPSSLSASVGDRVSITCKASQDVSIAVAWYQQKPGKAPKLLIYSASYRYTGVPDRFSGSGSGTDFTLTISSLQPEDFAVYYCQQHYITPLTFGAGTKVEIKR
modifications: Compound 3.3 on engineered C110 (EU numbering); Compound 3.3 on engineered C375 (EU numbering); DAR 3.7 for the whole antibody
B5: anti-TROP2 mAb5 (Sacituzumab, heavy chain S375C, light chain V110C) conjugated with Compound 3.16 (antibody, human IgG1, V domains shown)
VH: QVQLQQSGSELKKPGASVKVSCKASGYTFTNYGMNWVKQAPGQGLKWMGWINTYTGEPTYTDDFKGRFAFSLDTSVSTAYLQISSLKADDTAVYFCARGGFGSSYWYFDVWGQGSLVTVSS
VL: DIQLTQSPSSLSASVGDRVSITCKASQDVSIAVAWYQQKPGKAPKLLIYSASYRYTGVPDRFSGSGSGTDFTLTISSLQPEDFAVYYCQQHYITPLTFGAGTKVEIKR
modifications: Compound 3.16 on engineered C110 (EU numbering); Compound 3.16 on engineered C375 (EU numbering); DAR 3.3 for the whole antibody
B6: anti-TROP2 mAb5 (Sacituzumab, heavy chain S375C, light chain V110C) conjugated with Compound 3.17 (antibody, human IgG1, V domains shown)
VH: QVQLQQSGSELKKPGASVKVSCKASGYTFTNYGMNWVKQAPGQGLKWMGWINTYTGEPTYTDDFKGRFAFSLDTSVSTAYLQISSLKADDTAVYFCARGGFGSSYWYFDVWGQGSLVTVSS
VL: DIQLTQSPSSLSASVGDRVSITCKASQDVSIAVAWYQQKPGKAPKLLIYSASYRYTGVPDRFSGSGSGTDFTLTISSLQPEDFAVYYCQQHYITPLTFGAGTKVEIKR
modifications: Compound 3.17 on engineered C110 (EU numbering); Compound 3.17 on engineered C375 (EU numbering); DAR 3.6 for the whole antibody
B7: anti-TROP2 mAb5 (Sacituzumab, heavy chain S375C, light chain V110C) conjugated with Compound 3.13 (antibody, human IgG1, V domains shown)
VH: QVQLQQSGSELKKPGASVKVSCKASGYTFTNYGMNWVKQAPGQGLKWMGWINTYTGEPTYTDDFKGRFAFSLDTSVSTAYLQISSLKADDTAVYFCARGGFGSSYWYFDVWGQGSLVTVSS
VL: DIQLTQSPSSLSASVGDRVSITCKASQDVSIAVAWYQQKPGKAPKLLIYSASYRYTGVPDRFSGSGSGTDFTLTISSLQPEDFAVYYCQQHYITPLTFGAGTKVEIKR
modifications: Compound 3.13 on engineered C110 (EU numbering); Compound 3.13 on engineered C375 (EU numbering); DAR 3.3 for the whole antibody
B8: anti-TROP2 mAb5 (Sacituzumab, heavy chain S375C, light chain V110C) conjugated with Compound 3.18 (antibody, human IgG1, V domains shown)
VH: QVQLQQSGSELKKPGASVKVSCKASGYTFTNYGMNWVKQAPGQGLKWMGWINTYTGEPTYTDDFKGRFAFSLDTSVSTAYLQISSLKADDTAVYFCARGGFGSSYWYFDVWGQGSLVTVSS
VL: DIQLTQSPSSLSASVGDRVSITCKASQDVSIAVAWYQQKPGKAPKLLIYSASYRYTGVPDRFSGSGSGTDFTLTISSLQPEDFAVYYCQQHYITPLTFGAGTKVEIKR
modifications: Compound 3.18 on engineered C110 (EU numbering); Compound 3.18 on engineered C375 (EU numbering); DAR 3.6 for the whole antibody

How the values were obtained:
[1] = In vitro mouse plasma stability of antibody-CDN conjugates (payload CDN 2.2 retention on mAb by LC-MS); assay type: in vitro ADME; conditions: retention of CDN 2.2 on mAb
Protocol: (§1) In vitro plasma stability of ADC was performed by spiking mouse plasma with antibody-CDN conjugates (final concentration 100µg/mL). Samples were incubated in a 37°C incubator with 5% CO2, aliquots were taken at various time points and stored frozen for analysis.
(§2) Briefly, 25µL of plasma samples were incubated with biotinylated anti-human Fcy fragment mAb (final concetration 0.18mg/mL, Jackson ImmunoResearch cat # 109-065-098) for 30 min and then mixed with 30 µL Dynabead MyOne Streptavidin T1 (Invitrogen cat # 65604D) and 70 µL PBS. After 1 hour incubation, the beads were separated on a magnet, washed with PBS containing 0.05% Tween20, PBS and water, and ADCs were eluted in the presence of 0.2% of formic acid in water. Eluate was neutralized by adding ammonium formate (400mM final concentration) and ADCs were reduced with TCEP (40mM final concentration) for 30 minutes at room temperature. Samples were then measured by LC-MS and analyzed for compound-to-antibody ratio as described above.

[2] = Compound-to-antibody ratio (DAR) of antibody CDN conjugates by LC-MS
Protocol: Antibody CDN-conjugates were analyzed to determine the extent of conjugation. A compound-to-antibody ratio was extrapolated from LC-MS data for reduced samples. LC-MS allows quantitation of the average number of molecules of linker-payload attached to an antibody in a conjugate sample. Mass spectral data enables identification of the component species in the mixture, e.g., LC, LC+1, LC+2, HC, HC+1, HC+2, etc. From the average loading on the LC and HC chains, the average compound to antibody ratio can be calculated for an antibody conjugate. A compound-to-antibody ratio for a given conjugate sample represents the average number of compound (linker-payload) molecules attached to a tetrameric antibody containing two light chains and two heavy chains. The samples were reduced with 40 mM TCEP or 5.5 mM DTT, injected onto a MassPREP Micro Desalting column (20 µm, 5-mm by 2.1-mm ID, Waters) equilibrated in 0.1% formic acid (FA) in H2O and eluted by a fast gradient (4min) to 0.1% FA in acetonitrile. The separation was carried out by AQUITY UPLC I-Class system (Waters) and was on-line coupled to Mass Spectrometer Synapt G2 (Waters) to acquire mass spectra using electrospray ionization in positive mode. The TOF mass range was set from m/z 500 to 4000. The raw spectrum was subtracted and deconvoluted (MaxEnt 1, Waters) to produce the final spectrum. Conjugates were profiled using analytical size-exclusion chromatography on Superdex 200 equilibrated in PBS pH7.4; aggregation was analyzed based on analytical size exclusion chromatography.

[3] = In vitro mouse plasma stability of antibody-CDN conjugates (payload CDN 2.2 retention on mAb by LC-MS); assay type: in vitro ADME
Protocol: as §1, §2

Her2 = Her2 (UniProt P04626); experiment: cell-based or functional assay
TROP2 = biological target: T1, TROP2; experiment: cell-based or functional assay
[4] = monoclonal antibody: anti TROP2 mA5, 37°C
[5] = compound conjugated to anti Her2 mA2 via interchain cysteines

Molecule	HCC1954 IP10 EC50 (TROP2)	TROP2+ 293T EC50 (TROP2)	other results
4-((S)-2-((S)-2-(2-(2,5-dioxo-2,5-dihydro-1H-pyrrol-1-yl)acetamido)-3-methylbutanamido)-5-ureidopentanamido)benzyl (2-(((9-((6R,8R,9S,13aR,15R,16R,16aR,17R)-16,17-difluoro-3,11-dimercapto-3,11-dioxido-8-(6-oxo-1,6-dihydro-9H-purin-9-yl)decahydro-6,9-methanofuro[3,2-m][1,3,6,9,12]pentaoxa[2,10]diphosphacyclopentadecin-15-yl)-9H-purin-6-yl)carbamoyl)oxy)ethyl)(methyl)carbamate [Compound 3.3]	–	–	Mouse plasma T ½ ([1]; monoclonal antibody: anti Her2 mA2, 37°C): >15 days; Mouse plasma T ½ [1, 4]: >15 days; Drug Antibody ratio (DAR) [2, 5]: 3.7; Drug Antibody ratio (DAR) ([2]; compound conjugated to isotype mAb (Table 18)): 4.0
4-((S)-2-((S)-2-(2-(2,5-dioxo-2,5-dihydro-1H-pyrrol-1-yl)acetamido)-3-methylbutanamido)-5-ureidopentanamido)benzyl (9-((6R,8R,9S,13aR,15R,16R,16aR,17R)-16,17-difluoro-3,11-dimercapto-3,1 1-dioxido-8-(6-oxo-1,6-dihydro-9H-purin-9-yl)decahydro-6,9-methanofuro[3,2-m][1,3,6,9,12]pentaoxa[2,10]diphosphacyclopentadecin-15-yl)-9H-purin-6-yl)carbamate [Compound 3.13]	–	–	Mouse plasma T ½ [1, 4]: 9.6 days
CC(C)[C@H](NC(=O)CN1C(=O)C=CC1=O)C(=O)N[C@@H](CCCNC(N)=O)C(=O)Nc1ccc(COC(=O)N(C)CCOC(=O)Nc2ncnc3c2ncn3[C@@H]2O[C@H]3COP(=O)(S)O[C@@H]4[C@H](F)[C@@H](COP(=O)(S)OC[C@H]3[C@H]2F)O[C@H]4n2cnc3c(=O)[nH]cnc32)cc1 (stereo partly drawn) [Compound 3.3, 4-((S)-2-((S)-2-(2-(2,5-dioxo-2,5-dihydro-1H-pyrrol-1-yl)acetamido)-3-methylbutanamido)-5-ureidopentanamido)benzyl (2-(((9-((6R,8R,9S,13aR,15R,16R,16aR,17R)-16,17-difluoro-3,11-dimercapto-3,11-dioxido-8-(6-oxo-1,6-dihydro-9H-purin-9-yl)decahydro-6,9-methanofuro[3,2-m][1,3,6,9,12]pentaoxa[2,10]diphosphacyclopentadecin-15-yl)-9H-purin-6-yl)carbamoyl)oxy)ethyl)(methyl)carbamate]	–	–	attachment to anti Her2 mAb2 in mouse plasma ([3]; attached to anti Her2 mAb2 via interchain cysteines (Fig. 3)): stable over period up to 15 days; retention on anti-TROP2 mAb5 ([3]; attached to engineered light chain V110C and heavy chain S375C of mAb5 (Fig. 4)): excellent retention
(2S)-N-((2S)-1-((4-((((6R,8R,9S,13aR,15R,16R,16aR,17R)-15-(6-amino-9H-purin-9-yl)-16,17-difluoro-3-mercapto-3,11-dioxido-8-(6-oxo-1,6-dihydro-9H-purin-9-yl)decahydro-6,9-methanofuro[3,2-m][1,3,6,9,12]pentaoxa[2,10]diphosphacyclopentadecin-11-yl)thio)methyl)phenyl)amino)-1-oxopropan-2-yl)-2-(2-(2,5-dioxo-2,5-dihydro-1H-pyrrol-1-yl)acetamido)-3-methylbutanamide [Compound 3.19, reference compound]	–	–	Drug Antibody ratio (DAR) [2, 5]: 2.5
B1	–	–	HCC1954 IP10 EC50 (Her2): > 1000 nM
B2	> 1000 nM	> 1000 nM	HCC1954 IP10 EC50 (Her2): > 1000 nM
B3	> 1000 nM	> 1000 nM	–
B4	8 nM	8 nM	–
B5	5 nM	4 nM	–
B6	8 nM	3 nM	–
B7	2 nM	3 nM	–
B8	6 nM	2 nM	–
